Data: the supplement of paper PMC12764529
± gives the half width of the 95% confidence interval.

Legend:
[1] = folding stability dG unfold (combined trypsin and chymotrypsin); higher = more stable
How it was run: (§1)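 Sequencing followed digestion of designed mini-proteins with trypsin and chymotrypsin, each at 11 concentrations in threefold dilutions together with a no-protease condition. The mini-proteins were under 80 residues, had no cysteine, sat in a PA-tagged cDNA display construct, and were kept only if AlphaFold2 dimer inter-PAE was above 15. From the counts, Bayesian fitting gave K50, and unfolding free energy was derived against a sequence-predicted unfolded-state K50 and a shared folded-state K50, per protease or combined.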

[2] = folding stability dG unfold from chymotrypsin proteolysis; higher = more stable
How it was run: as §1

[3] = folding stability dG unfold from trypsin proteolysis; higher = more stable
How it was run: as §1

Sequence	folding stability dG unfold [1]	folding stability dG unfold [2]	folding stability dG unfold [3]
SAGGSAGGSAGGPVLVKLSVSKPPGDKVIVTLSFYNPETKEVFTITVPLDFLKNIKPLFSAGGSAGGSAGGS [r10_1077_TrMRF]	2.83 ± 0.2 kcal/mol	2.87 ± 0.13 kcal/mol	2.61 ± 0.11 kcal/mol
SAGGSAGGSAGGPVVEELEEDLVTEYFRDGDDLYKVVFIPGTGKPFEKKIESIPPDEPFSAGGSAGGSAGGS [r10_240_TrMRF]	2.34e-05 ± 0.23 kcal/mol	-0.0602 ± 0.21 kcal/mol	0.119 ± 0.088 kcal/mol
SAGGSAGGSAGGPVVIRLKVDMSPEEVEALAKELASLPNVKVEWDEESRVLTVTLSEEDLSAGGSAGGSAGG [r7_219_TrROS_Hall]	2.72 ± 0.099 kcal/mol	2.98 ± 0.056 kcal/mol	2.46 ± 0.09 kcal/mol
SAGGSAGGSAGGPYIRVLRSDGKPIVVPVRADDPELFDRVVAELEAAGYPVVKAEVLRLSAGGSAGGSAGGS [r10_231_TrMRF]	-0.041 ± 0.093 kcal/mol	0.155 ± 0.12 kcal/mol	-0.818 ± 0.78 kcal/mol
SAGGSAGGSAGGSAKSPNGDELPPGQPVEEHTIRPPVKPTITIKMYADPDAGKMKFELFSAGGSAGGSAGGS [r4_13_TrROS]	0.533 ± 0.6 kcal/mol	0.446 ± 0.31 kcal/mol	0.225 ± 0.24 kcal/mol
SAGGSAGGSAGGSAPNVKLKVEVVTVKVENAKITLPDGRTITLKPGDTVTITKVTLEPASAGGSAGGSAGGS [r4_26_TrROS_Hall]	2.04 ± 0.22 kcal/mol	2.05 ± 0.085 kcal/mol	2.32 ± 0.088 kcal/mol
SAGGSAGGSAGGSASMSVTLERLPNGTVVKITTKSVDPSTGSVDYKPSVEKIPPGVALDSAGGSAGGSAGGS [r4_72_JUSTAS]	-0.515 ± 0.28 kcal/mol	-0.448 ± 0.1 kcal/mol	-0.437 ± 0.18 kcal/mol
SAGGSAGGSAGGSDPVKVTVTFTATVTVTLPDGGTAPVTLTVTVTAELPPGQSVEDFVASAGGSAGGSAGGS [r4_126_TrMRF]	3.3 ± 0.073 kcal/mol	3.65 ± 0.055 kcal/mol	2.6 ± 0.033 kcal/mol
SAGGSAGGSAGGSDRVEVELIFKFPNGFYVVIKWEIDPDEPGKIEMEIAIFDPDGKPIWSAGGSAGGSAGGS [r4_297_TrROS]	4.63 ± 0.19 kcal/mol	4.69 ± 0.12 kcal/mol	3.35 ± 0.2 kcal/mol
SAGGSAGGSAGGSEEILDVKVDEKENTLVITTKLPSGGTTTKEIKVENVPPFPESNVKVSAGGSAGGSAGGS [r4_372_JUSTAS]	0.0453 ± 0.14 kcal/mol	0.31 ± 0.036 kcal/mol	-0.536 ± 0.072 kcal/mol
SAGGSAGGSAGGSEEKLKKMKPKKVATYKVKTVTYKKTKDGTWEPTKVEEVEITVYALPSAGGSAGGSAGGS [r4_288_TrROS_Hall]	3.28 ± 0.3 kcal/mol	4.04 ± 0.072 kcal/mol	2.44 ± 0.07 kcal/mol
SAGGSAGGSAGGSEELLKKNPNYIIVKKVEKVLEAKTPSGKKYTIKTTIYIITKPNELPSAGGSAGGSAGGS [r10_0_JUSTAS]	1.84 ± 0.21 kcal/mol	2.13 ± 0.14 kcal/mol	1.52 ± 0.099 kcal/mol
SAGGSAGGSAGGSEKEVEISVVLPDGYVLRVRVREVSEDGEEVEVEVELVKVKPGQKLLSAGGSAGGSAGGS [r4_72_TrROS_Hall]	1.5 ± 0.15 kcal/mol	1.37 ± 0.079 kcal/mol	1.57 ± 0.051 kcal/mol
SAGGSAGGSAGGSEKKITVYKDKNGNYLVVIEKGDKPIVIPFPKGASLKEALDIIDKLDSAGGSAGGSAGGS [r4_7_TrMRF]	2.41 ± 0.14 kcal/mol	2.64 ± 0.051 kcal/mol	1.95 ± 0.095 kcal/mol
SAGGSAGGSAGGSFGAVKARFKVEFVARAEDGSLYPVELEFEVEVPVLPPLPFLHPDLFSAGGSAGGSAGGS [r4_325_TrMRF]	2.18 ± 0.068 kcal/mol	2.35 ± 0.038 kcal/mol	1.86 ± 0.051 kcal/mol
SAGGSAGGSAGGSFTIASVETIRQPNGEILYRITLKFPDGTVEEVLEVPESEAGKVLSSLSAGGSAGGSAGG [r7_891_JUSTAS]	3.3 ± 0.07 kcal/mol	3.333 ± 0.025 kcal/mol	3.23 ± 0.12 kcal/mol
SAGGSAGGSAGGSGAEELAKKLQEKLEELGLEAEITVEYDEETNELTITITVDGKEYEFSAGGSAGGSAGGS [r4_312_TrROS_Hall]	1.94 ± 0.06 kcal/mol	1.74 ± 0.063 kcal/mol	2.24 ± 0.13 kcal/mol
SAGGSAGGSAGGSGAGTLITVTVGGKEVPVTVDPSSDRVSITLPEPTSLTLSVEDPARASAGGSAGGSAGGS [r10_1185_JUSTAS]	0.208 ± 0.17 kcal/mol	-0.602 ± 0.3 kcal/mol	0.593 ± 0.1 kcal/mol
SAGGSAGGSAGGSGGSARIEVERLPDGLVLLRIYDPETGEEIEIPMPPDLARSFVFLNGSAGGSAGGSAGGS [r4_494_TrMRF]	1.11 ± 0.045 kcal/mol	1.51 ± 0.085 kcal/mol	0.471 ± 0.026 kcal/mol
SAGGSAGGSAGGSGKLYYIVVELPNGEKISLLVESPEGAIELLEKLNYPVVKAEFFPISSAGGSAGGSAGGS [r4_213_TrMRF]	2.84 ± 0.12 kcal/mol	3.09 ± 0.055 kcal/mol	2.29 ± 0.091 kcal/mol
SAGGSAGGSAGGSGMITVTIEREYTSYVTFPGGTLEPVLLKTTVTATLPPGVPVEEFLSSAGGSAGGSAGGS [r4_126_JUSTAS]	1.54 ± 0.11 kcal/mol	1.37 ± 0.12 kcal/mol	1.65 ± 0.058 kcal/mol
